{
  "source": "patent US20050249735A1",
  "key": {"[1]": {"target": "human lymphotoxin (TNFβ) (human) (UniProt P01374)", "sequence (P01374 35-205 limits assumed)": "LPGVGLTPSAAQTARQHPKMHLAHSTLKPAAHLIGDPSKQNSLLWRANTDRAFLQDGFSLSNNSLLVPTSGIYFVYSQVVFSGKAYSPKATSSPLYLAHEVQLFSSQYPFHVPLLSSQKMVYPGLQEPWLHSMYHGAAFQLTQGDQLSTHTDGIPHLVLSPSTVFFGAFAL", "assay": "cell-based or functional assay"}, "[2]": {"target": "human tumor necrosis factor-alpha (TNFα) (human) (UniProt P01375)", "sequence (P01375 77-233)": "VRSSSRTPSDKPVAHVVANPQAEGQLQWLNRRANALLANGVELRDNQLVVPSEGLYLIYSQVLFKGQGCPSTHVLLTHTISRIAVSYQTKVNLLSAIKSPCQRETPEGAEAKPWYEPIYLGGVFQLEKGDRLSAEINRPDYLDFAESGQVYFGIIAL", "assay": "cell-based or functional assay"}},
  "data": [
    {"molecule": "p55-sf2 (p55 TNF receptor / IgG1 heavy chain single fusion with truncated light chain JCK) (from UniProt P01857 1-330) (Fc fusion)", "values": [
      {"measurement": "amount needed for the same degree of inhibition of TNFβ cytotoxicity, against p75P-sf2", "setting": "[1]", "value": 3, "unit": "fold"}
    ]},
    {"molecule": "p75P-sf2 (p75 heavy chain fusion lacking the C-terminal 53 amino acids of the p75 extracellular domain) (from UniProt P20333 23-204; P01857 1-330) (Fc fusion)", "values": [
      {"measurement": "concentration to half-inhibit human TNFβ at 2 pM, WEHI 164 cytotoxicity", "setting": "[1]", "value": 31, "unit": "pM"}
    ]},
    {"molecule": "p75-sf2 (complete extracellular domain of p75 fused to the heavy chain) (from UniProt P20333 23-257; P01857 1-330) (Fc fusion)", "values": [
      {"measurement": "amount needed for the same degree of inhibition of TNFβ cytotoxicity, against p75P-sf2", "setting": "[1]", "value": 3, "unit": "fold"}
    ]},
    {"molecule": "chimeric mouse/human IgG1 anti-platelet mAb (7E3) (antibody, INN chains, looked up, V domains shown, full IgG1) VH: EVQLQQSGTVLARPGASVKMSCEASGYTFTNYWMHWVKQRPGQGLEWIGAIYPGNSDTSYIQKFKGKAKLTAVTSTTSVYMELSSLTNEDSAVYYCTLYDGYYVFAYWGQGTLVTVSA VL: EIVLTQSPVTLSVTPGDSVSLSCRASRDISNNLHWFQQTSHESPRLLIKYASQSMSGIPSRFSGSGSGTDFTLSINSVETEDFGMYFCQQTNSWPYTFGGGTKLEIK", "values": [
      {"measurement": "IL-6 in supernatant of FS-4 fibroblasts, rhTNF 0.3 ng/ml, 4 µg/ml antibody", "setting": "[2]", "value": 1.6, "unit": "ng/mL"},
      {"measurement": "IL-6 in supernatant of FS-4 fibroblasts, rhTNF 1.5 ng/ml, 4 µg/ml antibody", "setting": "[2]", "value": 1.96, "unit": "ng/mL"},
      {"measurement": "IL-6 in supernatant of FS-4 fibroblasts, rhTNF 7.5 ng/ml, 4 µg/ml antibody", "setting": "[2]", "value": 2.16, "unit": "ng/mL"}
    ]}
  ]
}
